# According to paper PMC11845978 (Protein Science : A Publication of the Protein Society, 2025):
# B1: Hendra virus PNT3 (aa 200–310 of the P/V/W proteins), wild type, full-length PNT3 (domain or fragment)
# chain: TPTEEPPVIPEYYYGSGRRGDLSKSPPRGNVNLDSIKIYTSDDEDENQLEYEDEFAKSSSEVVIDTTPEDNDSINQEEVVGDPSDQGLEHPFPLGKFPEKEETPDVRRKDS
# Molecular target: the molecule itself
# Experiment: […]
protein,measurement,value
B1,binding result,binds
